In doi:10.1101/2025.05.02.651858:

Biological target: ϕC31 integrase^S12A-RDF fusion protein (Streptomyces phage ϕC31) (UniProt Q9T221)
Assay: SEC-MALS

- stoichiometry N: 4
Substance: ϕC31 integrase^S12A-RDF fusion protein (from UniProt Q9T221 1-605)
